Experimental data from the supplement of paper PMC11246515.
± gives the standard deviation of the averaged measurements.

Assay: total protein half-life in vivo (active degradation + dilution); higher = more stable protein
[1] = E. coli NCM3722 delta-clpP delta-lon delta-hslV, growth: N-lim chemostat, doubling time 6 h
[2] = E. coli NCM3722 delta-clpP, growth: N-lim chemostat, doubling time 6 h
[3] = E. coli NCM3722 delta-hslV, growth: N-lim chemostat, doubling time 6 h
[4] = E. coli NCM3722 delta-lon, growth: N-lim chemostat, doubling time 6 h
[5] = E. coli NCM3722 delta-smpB, growth: N-lim chemostat, doubling time 6 h
[6] = wild type E. coli NCM3722, growth: C-lim chemostat, doubling time 3 h
[7] = wild type E. coli NCM3722, growth: C-lim chemostat, doubling time 6 h
[8] = wild type E. coli NCM3722, growth: C-lim chemostat, doubling time 12 h
[9] = wild type E. coli NCM3722, growth: N-lim chemostat, doubling time 6 h
[10] = wild type E. coli NCM3722, growth: N-lim chemostat, doubling time 12 h
[11] = wild type E. coli NCM3722, growth: P-lim chemostat, doubling time 6 h
[12] = wild type E. coli NCM3722, growth: P-lim chemostat, doubling time 12 h

Row | Sequence | total protein half-life in vivo [1] | total protein half-life in vivo [2] | total protein half-life in vivo [3] | total protein half-life in vivo [4] | total protein half-life in vivo [5] | total protein half-life in vivo [6] | total protein half-life in vivo [7] | total protein half-life in vivo [8] | total protein half-life in vivo [9] | total protein half-life in vivo [10] | total protein half-life in vivo [11] | total protein half-life in vivo [12]
1 | MTRKQATIAVRSGLNDDEQYGCVVPPIHLSSTYNFTGFNEPRAHDYSRRGNPTRDVVQRALAELEGGAGAVLTNTGMSAIHLVTTVFLKPGDLLVAPHDCYGGSYRLFDSLAKRGCYRVLFVDQGDEQALRAALAEKPKLVLVESPSNPLLRVVDIAKICHLAREVGAVSVVDNTFLSPALQNPLALGADLVLHSCTKYLNGHSDVVAGVVIAKDPDVVTELAWWANNIGVTGGAFDSYLLLRGLRTLVPRMELAQRNAQAIVKYLQTQPLVKKLYHPSLPENQGHEIAARQQKGFGAMLSFELDGDEQTLRRFLGGLSLFTLAESLGGVESLISHAATMTHAGMAPEARAAAGISETLLRISTGIEDGEDLIADLENGFRAANKG | 4.37 ± 0.79 h | 4.07 ± 0.43 h | 3.31 ± 0.36 h | 4.53 ± 0.59 h | 3.95 ± 0.28 h | 3.1 ± 0.16 h | 4.98 ± 0.61 h | 10 ± 0.44 h | 3.56 ± 0.17 h | 5.84 ± 0.7 h | 5.83 ± 0.5 h | 11.7 ± 1.1 h
2 | MTRLAEILDQMSAVLNDLKTVMDQEQQHLSMGQINGSQLQWITEQKSSLLATLDYLEQLRRKEPNTANSVDISQRWQEITVKTQQLRQMNQHNGWLLEGQIERNQQALEMLKPHQEPTLYGANGQTSTTHRGGKKISI |  |  |  |  |  | 1.15 ± 0.27 h | 4.91 h | 3.28 h |  |  |  | 
3 | MTRLTLALDVMGGDFGPSVTVPAALQALNSNSQLTLLLVGNSDAITPLLAKADFEQRSRLQIIPAQSVIASDARPSQAIRASRGSSMRVALELVKEGRAQACVSAGNTGALMGLAKLLLKPLEGIERPALVTVLPHQQKGKTVVLDLGANVDCDSTMLVQFAIMGSVLAEEVVEIPNPRVALLNIGEEEVKGLDSIRDASAVLKTIPSINYIGYLEANELLTGKTDVLVCDGFTGNVTLKTMEGVVRMFLSLLKSQGEGKKRSWWLLLLKRWLQKSLTRRFSHLNPDQYNGACLLGLRGTVIKSHGAANQRAFAVAIEQAVQAVQRQVPQRIAARLESVYPAGFELLDGGKSGTLR |  | 6.24 ± 1.2 h | 5.82 ± 0.97 h |  | 5.36 ± 0.15 h | 2.67 ± 0.076 h | 5.52 ± 0.33 h | 10.8 ± 1.9 h | 5.32 ± 0.21 h | 9.51 ± 0.53 h | 5.34 ± 0.72 h | 8.85 ± 1.9 h
4 | MTRTNLITGFLGSGKTTSILHLLAHKDPNEKWAVLVNEFGEVGIDGALLADSGALLKEIPGGCMCCVNGLPMQVGLNTLLRQGKPDRLLIEPTGLGHPKQILDLLTAPVYEPWIDLRATLCILDPRLLLDEKSASNENFRDQLAAADIIVANKSDRTTPESEQALQRWWQQNGGDRQLIHSEHGKVDGHLLDLPRRNLAELPASAAHSHQHVVKKGLAALSLPEHQRWRRSLNSGQGYQACGWIFDADTVFDTIGILEWARLAPVERVKGVLRIPEGLVRINRQGDDLHIETQNVAPPDSRIELISSSEADWNALQSALLKLRLATTA | 4.59 ± 0.6 h | 4.12 ± 0.58 h | 3.4 ± 0.12 h | 3.83 ± 0.31 h | 3.47 ± 0.083 h | 2.66 ± 0.31 h | 5.66 ± 0.057 h | 9.04 ± 0.88 h | 3.47 ± 0.12 h | 5.62 ± 0.064 h | 5.197 ± 0.035 h | 9.17 ± 0.28 h
